Measurements from PMC12678802, “Tudor-based proteomic strategy pan-specifically enriches and identifies protein arginine methylation” (EMBO Reports, 2025).
Where two headings read alike, the source gives them in different places.

Key:
SMN Tudor domain (SMN) = target: T1, SMN Tudor domain (SMN) (Homo sapiens, UniProt Q16637); test: isothermal titration calorimetry (ITC), […] model, N fixed at […]; type: binding
T1 construct: gene SMN1; SMN Tudor domain (80–167 aa), C-terminal His6-tag

[1] = target: SMN Tudor domain (80-167 aa) with a C-terminal His6-tag (UniProt Q16637); test: ITC; 2 mM or 5 mM ligand in the syringe injected into 200 uM or 300 uM SMN Tudor in the cell; 1x PBS, 25 °C; one site model with stoichiometry (N) fixed at 1
SMN Tudor domain (80-167 aa) with a C-terminal His6-tag, sequence (Q16637 80-167): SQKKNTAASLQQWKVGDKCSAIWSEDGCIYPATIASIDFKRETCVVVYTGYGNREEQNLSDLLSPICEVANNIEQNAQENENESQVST

T1 sequence (Q16637 80-167): as above

| Kd (SMN Tudor domain (SMN); read-out: KD) [µM] | Kd [1] [µM] | dH [1] [kcal/mol] | Compound | other results |
| --- | --- | --- | --- | --- |
| 860 ± 34 |  |  | CN(C)C(=N)NCCC[C@H](N)C(=O)O [aDMA, Asymmetric dimethylarginine] |  |
| 359 ± 45 |  |  | CN=C(NC)NCCC[C@H](N)C(=O)O [sDMA, Symmetric dimethylarginine] |  |
|  | > 2000 |  | SmD1 heptapeptide AGRGRGR, residues 96–102 of SmD1 |  |

Further lines, the compound ahead of its results:

| Compound | Kd (SMN Tudor domain (SMN); read-out: KD) [µM] | Kd [1] [µM] | dH [1] [kcal/mol] | other results |
| --- | --- | --- | --- | --- |
| CNC(=N)NCCC[C@H](N)C(=O)O [MMA, Methylarginine (L-NMMA)] |  |  |  | Kd (SMN Tudor domain (SMN)): 1800 ± 322 µM |
| SmD1-aDMA heptapeptide AGRme2aGRGR, residues 96–102 of SmD1 |  | 834 | -8.02 |  |
| SmD1-sDMA heptapeptide AGRme2sGRGR, residues 96–102 of SmD1 |  | 375 | -14.5 |  |
